Values of other authors, collected in publication PMC8526499.
Like-named read-outs stand apart in the source and are kept apart here. Values belong to the substance of their own block, whether it stands above or below them.

Legend:
CD47 (Mus musculus) = CD47 (Mus musculus) (UniProt Q61735)
CD47 (Homo sapiens) [1] = biological target: CD47 (Homo sapiens) (UniProt Q08722)
CD47 (Homo sapiens) [2] = biological target: CD47 (Homo sapiens) (UniProt Q08722); remark: listed apart in the source
CD47 (Homo sapiens) [3] = biological target: CD47 (Homo sapiens) (UniProt Q08722); remark: listed apart in the source

UniProt Q08722, sequence (Q08722 19-323): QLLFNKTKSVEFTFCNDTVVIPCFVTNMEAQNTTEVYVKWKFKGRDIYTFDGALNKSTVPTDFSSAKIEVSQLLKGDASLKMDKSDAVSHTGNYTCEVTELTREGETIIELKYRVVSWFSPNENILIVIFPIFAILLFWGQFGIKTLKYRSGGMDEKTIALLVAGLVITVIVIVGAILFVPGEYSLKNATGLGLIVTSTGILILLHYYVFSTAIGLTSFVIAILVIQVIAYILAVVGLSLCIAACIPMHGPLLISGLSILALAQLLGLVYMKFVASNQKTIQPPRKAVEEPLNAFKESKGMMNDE
UniProt Q61735, sequence (Q61735 19-303): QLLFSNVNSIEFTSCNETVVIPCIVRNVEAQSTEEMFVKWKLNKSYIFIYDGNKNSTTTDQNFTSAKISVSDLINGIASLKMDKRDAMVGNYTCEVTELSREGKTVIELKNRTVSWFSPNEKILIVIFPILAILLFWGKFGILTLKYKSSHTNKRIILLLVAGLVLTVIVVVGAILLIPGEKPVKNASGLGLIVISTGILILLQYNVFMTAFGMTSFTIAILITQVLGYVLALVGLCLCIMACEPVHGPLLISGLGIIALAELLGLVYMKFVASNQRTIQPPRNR

Kd (CD47 (Mus musculus)): 5000 nM | Kd (CD47 (Homo sapiens) [1]): 5000 nM
Substance: SIRPα (C57BL/6) (from UniProt P97797)

Kd (CD47 (Homo sapiens) [2]): 80 nM
Substance: SIRPα (NOD) (from UniProt P97797)

Kd (CD47 (Homo sapiens) [3]): 450 nM
Substance: SIRPα (from UniProt P78324)
